# ± gives the standard error. This sample holds only a part of the variants without activity.
# B1: glmS ribozyme (parent)
# chain: AUAAAAGCGCCAGAACUACAGAAAUGUAGUUGACGAGGAGGAGGUUUAUCGAAUUUUCGGCGGAUGCCUCCAAA
# Variants of: B1
# Assay: self-cleavage kobs at 2500 uM GlcN6P; higher = faster cleavage; RNA array
# Conditions: with glucosamine-6-phosphate
# Procedure, shortened: (§1)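 Glucosamine-6-phosphate, from 40 μM to 10 mM in HEPES/KCl/Mg(OAc)2 buffer, was flowed over sequenced MiSeq chips carrying barcoded ribozyme variants transcribed in situ by E. coli RNA polymerase. A hybridised Cy3 probe tracked the variants at 37 °C as tiles were imaged over ~14 h. kobs, kcat and KM were obtained by fitting normalised per-tile medians to exponential decays and then applying weighted Michaelis–Menten fits across concentrations.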
row,Variant,self-cleavage kobs at 2500 uM GlcN6P
1,C10A C11A G38C G41A,< 1e-05 s⁻¹
2,C8A U45G U57A,< 1e-05 s⁻¹
3,C8U G37A C50G A64G C71A,0.000244 ± 6.7e-05 s⁻¹
4,C10U C11A A12G G41C,< 1e-05 s⁻¹
5,G7A U46C A52U C58A,< 1e-05 s⁻¹
6,C11G U30G U49A,< 1e-05 s⁻¹
7,C11G C16U G51A U65A C67G,8.38e-05 ± 3e-05 s⁻¹
8,C8U C11A G32A U56G,< 1e-05 s⁻¹
9,G9U G29A A42G G60C,< 1e-05 s⁻¹
10,G9C G41A C70U,< 1e-05 s⁻¹
11,C11A G40C G62A C68U,< 1e-05 s⁻¹
12,C11U U30G C68G,< 1e-05 s⁻¹
13,G7U G41A A64U,< 1e-05 s⁻¹
14,G9A A14G A33C G38U U57A,< 1e-05 s⁻¹
15,A12C A15C A39G A64G C70U,< 1e-05 s⁻¹
16,G7C A42G U69G,< 1e-05 s⁻¹
17,G7C G38C G51U,< 1e-05 s⁻¹
18,G9C U30A G44U G59U C61U G66C C70U,< 1e-05 s⁻¹
19,G9U G29U G35U G38C U45G U49A,< 1e-05 s⁻¹
20,A12C A52C,< 1e-05 s⁻¹
21,C10A A53U G60U,8.13e-05 ± 1.6e-05 s⁻¹

row,Variant,self-cleavage kobs at 2500 uM GlcN6P
1,A12C A36G G40U G43U U54G,< 1e-05 s⁻¹
2,G9C C50G U55A U57G C70U,0.000283 ± 0.0001 s⁻¹
3,C11G C34A G37U,< 1e-05 s⁻¹
4,G7U G35U U45A A53C,< 1e-05 s⁻¹
5,C11G G29U C50U C67U,0.0015 ± 0.00049 s⁻¹
6,G7C A15C G32U C58U C61U,< 1e-05 s⁻¹
7,C8G G35U A52G C61A,< 1e-05 s⁻¹
8,G7C G38A U49C A53C C61A,< 1e-05 s⁻¹
9,A12G G44U G59C G60C,< 1e-05 s⁻¹
10,C10G A12C G44A C68U,< 1e-05 s⁻¹
11,G9C C11U G29C G59C,< 1e-05 s⁻¹
12,G9U G35C A42U,< 1e-05 s⁻¹
13,A12G A15U U54C C67G,5.41e-05 ± 1.9e-05 s⁻¹
14,C8A U31C G38A A64C,< 1e-05 s⁻¹
15,C8G A42G A52U,< 1e-05 s⁻¹
16,A12G G32U G40U,0.000317 ± 0.00011 s⁻¹
17,C11G G29C A36G U69G,0.001 ± 0.00046 s⁻¹
18,C8A G13A U56C,< 1e-05 s⁻¹
19,G9U C10U C34U U46A,< 1e-05 s⁻¹
20,C10A G40U U47G U49C U55A,< 1e-05 s⁻¹
21,G7C A52U U55G C68G,< 1e-05 s⁻¹

row,Variant,self-cleavage kobs at 2500 uM GlcN6P
1,G9U G29A A33U,< 1e-05 s⁻¹
2,C11U A14G G43A,< 1e-05 s⁻¹
3,C8G A12U U31A G51C,< 1e-05 s⁻¹
4,G7C C50U C67A,< 1e-05 s⁻¹
5,C10G G43U A64G,< 1e-05 s⁻¹
6,A12G C16G C68G,0.00102 ± 0.0005 s⁻¹
7,C8U A36C G51U C68A,< 1e-05 s⁻¹
8,C8U C34G U69G,8.61e-05 ± 2.2e-05 s⁻¹
9,A12C G35U A36G U65G,< 1e-05 s⁻¹
10,C8G C10A G44U,< 1e-05 s⁻¹
11,C8G G51C U54G,< 1e-05 s⁻¹
12,G9U A36G C61G C67U,< 1e-05 s⁻¹
13,C11A U30G G43C C68G C71U,0.000269 ± 9.8e-05 s⁻¹
14,G7U G32C C34U,< 1e-05 s⁻¹
15,A12G G29C G37A U46A,< 1e-05 s⁻¹
16,C10A G35A A36U,< 1e-05 s⁻¹
17,G9U G59U C70U,< 1e-05 s⁻¹
18,C11U G60U C68A,< 1e-05 s⁻¹
19,C10U C11A G40A,< 1e-05 s⁻¹
20,C10U A12U G63C C70A C71A,5.29e-05 ± 1.7e-05 s⁻¹
21,G9U A36G U49A G62U C67U C70G,< 1e-05 s⁻¹

row,Variant,self-cleavage kobs at 2500 uM GlcN6P
1,G9A G62U U69G,< 1e-05 s⁻¹
2,C8U G37U A39C,< 1e-05 s⁻¹
3,G7U G29C A42C,< 1e-05 s⁻¹
4,A12C G41A G63A,< 1e-05 s⁻¹
5,C10G A42G A48C,< 1e-05 s⁻¹
6,C10A G44C A48C,< 1e-05 s⁻¹
7,A12C A15C A48G,< 1e-05 s⁻¹
8,C11A A42U G43A,< 1e-05 s⁻¹
9,G9U U31G G66U C71U,< 1e-05 s⁻¹
10,G9U G66U U69G,< 1e-05 s⁻¹
11,C8U G9U G63U,< 1e-05 s⁻¹
12,C11U U31C G32A A64U,< 1e-05 s⁻¹
13,C10U A53G C61A C67G,8.38e-05 ± 4.1e-05 s⁻¹
14,C10A A33U A48U,< 1e-05 s⁻¹
15,C10G C34G G51U,< 1e-05 s⁻¹
16,A12G A39U U47G,8.38e-05 ± 1.6e-05 s⁻¹
17,C11U G13U U30C G44A,< 1e-05 s⁻¹
18,A12G A14C A33U C34G G38U,< 1e-05 s⁻¹
19,C8A G29C A42G U45C U46G,< 1e-05 s⁻¹

# Variants of: B1
# Assay: self-cleavage kobs at 10000 uM GlcN6P; higher = faster cleavage; RNA array
# Conditions: with glucosamine-6-phosphate
# Procedure, shortened: as §1
row,Variant,self-cleavage kobs at 10000 uM GlcN6P
1,G9C C50G U55A U57G C70U,0.000426 ± 0.00018 s⁻¹
2,G7C A15C G32U C58U C61U,< 1e-05 s⁻¹
3,C8U A36C G51U C68A,< 1e-05 s⁻¹
4,C11A U30G G43C C68G C71U,0.000118 ± 3e-05 s⁻¹
5,C8A G29C A42G U45C U46G,< 1e-05 s⁻¹

# — the supplement of paper PMC7125110
